Measured values taken from US20200291444A1, “Macrocyclisation Tags” (Oxford University Innovation LTD, priority 2017, published 2020).

T1: GmPOPB_S577A (Galerina marginata), H2E7Q8
T1 chain: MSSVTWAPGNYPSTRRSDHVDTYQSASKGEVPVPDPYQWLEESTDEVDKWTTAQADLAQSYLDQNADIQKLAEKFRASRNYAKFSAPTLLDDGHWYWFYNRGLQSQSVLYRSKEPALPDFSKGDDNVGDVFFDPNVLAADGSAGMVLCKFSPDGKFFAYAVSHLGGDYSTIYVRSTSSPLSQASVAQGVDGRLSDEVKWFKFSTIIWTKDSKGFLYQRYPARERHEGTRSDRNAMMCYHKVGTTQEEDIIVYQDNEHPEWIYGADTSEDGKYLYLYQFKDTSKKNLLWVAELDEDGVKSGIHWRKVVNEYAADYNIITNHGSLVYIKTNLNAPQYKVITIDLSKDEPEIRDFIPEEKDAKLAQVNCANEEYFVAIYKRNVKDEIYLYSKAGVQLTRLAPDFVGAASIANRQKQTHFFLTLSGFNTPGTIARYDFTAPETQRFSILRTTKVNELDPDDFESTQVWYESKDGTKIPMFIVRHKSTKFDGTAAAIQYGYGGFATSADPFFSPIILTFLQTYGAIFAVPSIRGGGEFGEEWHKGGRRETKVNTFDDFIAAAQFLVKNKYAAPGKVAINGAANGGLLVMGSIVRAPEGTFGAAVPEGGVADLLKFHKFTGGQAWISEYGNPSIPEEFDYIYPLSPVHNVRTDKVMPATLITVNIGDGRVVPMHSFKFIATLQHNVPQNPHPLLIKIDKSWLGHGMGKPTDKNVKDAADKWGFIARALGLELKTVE

B1: 10mer truncated substrate (peptide)
peptide: IWGIGCNPWT
modifications: not checked
B2: truncated recognition sequence … (peptide)
peptide: TLASGNDIC
modifications: not checked
B3: truncated recognition sequence … (peptide)
peptide: VDQTLASGNDIC
modifications: not checked
B4: 13mer truncated substrate (peptide)
peptide: IWGIGCNPWTAEH
modifications: not checked
B5: recognition sequence (17mer) … (peptide)
peptide: WTAEHVDQTLASGNDIC
modifications: not checked
B6: 12mer truncated substrate (peptide)
peptide: IWGIGCNPWTAE
modifications: not checked
B7: 11mer truncated substrate (peptide)
peptide: IWGIGCNPWTA
modifications: not checked
B8: 14mer truncated substrate (peptide)
peptide: IWGIGCNPWTAEHV
modifications: not checked

Columns and labels:
[1] = target: T1, GmPOPB_S577A (Galerina marginata), …; experiment: ITC, peptide titrated into GmPOPB_S577A, 20 C
[2] = target: T1, GmPOPB_S577A (Galerina marginata), …; experiment: ITC
[3] = target: T1, GmPOPB_S577A (Galerina marginata), …; experiment: ITC, 20 C, single-site model

| Binder | Kd [1] [µM] | further results |
| --- | --- | --- |
| B1 | 83 |  |
| B2 | 121 |  |
| B3 | 5 | fold reduction of binding affinity against the 17mer recognition sequence [2]: 20 fold |
| B4 | 2.4 | fold difference in affinity against the 35mer [2]: 20 fold; fold reduction in binding against the 35mer [2]: 10 fold |
| B5 |  | Kd [3]: 0.43 µM |
| B6 | 21 |  |
| B7 | 39 |  |
| B8 | 9.5 |  |
